B1: hNTCP: human NTCP receptor (SEQ ID NO: 4) (protein, listed as Homo sapiens)
chain: MEAHNASAPFNFTLPPNFGKRPTDLALSVILVFMLFFIMLSLGCTMEFSKIKAHLWKPKGLAIALVAQYGIMPLTAFVLGKVFRLKNIEALAILVCGCSPGGNLSNVFSLAMKGDMNLSIVMTTCSTFCALGMMPLLLYIYSRGIYDGDLKDKVPYKGIVISLVLVLIPCTIGIVLKSKRPQYMRYVIKGGMIIILLCSVAVTVLSAINVGKSIMFAMTPLLIATSSLMPFIGFLLGYVLSALFCLNGRCRRTVSMETGCQNVQLCSTILNVAFPPEVIGPLFFFPLLYMIFQLGEGLLLIAIFWCYEKFKTPKDKTKMIYTAATTEETIPGALGNGTYKGEDCSP

Key:
[1] = test system: porcine NTCP; assay: Guide RNA efficiency to cause Indel mutations in porcine kidney fibroblasts (CRISPR/Cas9); format: cell-based; details: modified PX330 plasmid
Method: Here, porcine kidney fibroblasts were transfected with a modified PX330 plasmid, carrying an additional Puromycin selection cassette, porcine NTCP guide RNA sequence and Cas9 nuclease. Several guide RNA sequences (18 bp long) were tested for their efficiency to cause Insertion/Deletion (Indel) mutations.

[2] = test system: HBV; assay: HBV infection of HepG2 cells transfected with NTCP variants, HBeAg ELISA of supernatant; format: cell-based, Hepatitis B virus; details: HepG2 transfected with NTCP plasmid, HBV MOI 300, days 4, 7 and 10 after infection, FIG. 5A
Method: However, neither of these approaches was successful with porcine NTCP. […] Therefore, these human cells are a valuable tool to analyze the effect of different NTCP muteins in a human cell culture system.
HepG2 cells were transfected with plasmids coding for different variants of NTCP: human (hNTCP), porcine (pNTCP) or chimeric (pNTCP w/ hAA). After transfection, the cells were incubated for three days with 2% DMSO before they were infected with HBV at an MOI of 300. The supernatant was collected at days 4, 7 and 10 after infection and analyzed for the viral protein HBeAg by ELISA.

[3] = test system: HBV; assay: qPCR of HBV rcDNA and cccDNA in PPH; format: cell-based, Hepatitis B virus; details: day 5 after infection, FIG. 3
Method: (§1) Primary porcine hepatocytes (PPH) were isolated from a pig liver less than 3 h after slaughter and kept in culture: For infection experiments, the cells were seeded in a 24 well plate and for Southern Blot experiments into 6 well plates. The next day, the cells were transduced with adenovirus at an MOI of 1 or 5 (see FIG. 2) and cultured in DMEM-F12 comprising […]. The sequences of the adenoviruses are shown in SEQ ID NO: 6 for Ad-hNTCP, SEQ ID NO: 7 for Ad-phNTCP and SEQ ID NO: 8 for Ad-hNTCP-tdTomato.
(§2) On day 4 after isolation (day 3 after transduction), the cells were infected with HBV (genotype D, serotype ayw) in DMEM-F12 with 4% PEG6000 with an MOI of 1000.
On day 5 after infection, the 24 well plates were lysed, frozen and then DNA was isolated and analyzed for rcDNA or cccDNA using qPCR. In detail, total cellular DNA was extracted using NucleoSpin Tissue kit (Macherey Nagel). For selective cccDNA PCR, isolated DNA was treated with 5 units of T5 exonuclease (NEB, Frankfurt, Germany) for 30 min in 10 μl reaction volume (Xia 2017b) followed by heat-inactivation at 95° C. for 5 min and 4-fold dilution with distilled water. Two different primer sets were used to detect total intracellular HBV DNA (HBV1844F: 5′-[…]-3′ (SEQ ID NO: 9) and HBV1745R: 5′-GGAGGGATACATAG (SEQ ID NO: 10).

[4] = test system: HBV; assay: Southern Blot analysis of HBV cccDNA in PPH; format: cell-based, Hepatitis B virus; details: day 4 after infection with HBV, FIG. 4
Method: as §1, §2
On days 3 and 5 after HBV infection, samples were taken for HBeAg measurements. Medium was changed on day 3 after HBV infection. The 6 well plate for the Southern Blot analysis was frozen at −80° C. on day 4 after HBV infection and used for a Hirt extraction with subsequent Southern Blot. To detect protein-free forms of HBV DNA including cccDNA, a modified Hirt extraction procedure was used (Yan et al. 2012). Intracellular capsid-associated DNA was prepared as described (Ko et al. 2014). Viral DNA forms were separated on an agarose gel, transferred onto a nylon membrane, and hybridized with a digoxigenin-labeled HBV-specific probe (Ko et al. 2014). DNA signal was detected by DIG Luminescent Detection Kit (Roche).

Molecule | Indel frequency [1] | susceptibility of HepG2 cells to HBV (HBeAg in supernatant) [2] | HBV cccDNA in PPH [3] | HBV rcDNA in PPH [3] | HBV cccDNA in Southern Blot [4]
NTCP G3: guide RNA sequence GAAGGACAAGGTGCCCTA (SEQ ID NO: 22) (expressed or natural sequence) | highest |  |  |  | 
B1 |  | susceptible to HBV | drastic increase | drastic increase | show HBV cccDNA

From patent US20210269499A1, “HEPATITIS B AND/OR HEPATITIS D-PERMISSIVE CELLS AND ANIMALS” (TECHNISCHE UNIVERSITAET MUENCHEN, priority 2018, published 2021)
